Here are results for one substance from publication doi:10.1101/776187.

For assay [1], the target named is human cytoplasmic dynein (recombinant complex of DHC, DIC, DLIC, Tctex, Robl and LC8) (human) (UniProt Q14204).
For assay [2], the target named is dynactin (bovine (purified from bovine brain)).

Take “Drosophila BicD-coiled-coil domain 1 (truncated N-terminal fragment of Dm BicD) (domain or fragment)”: in assay [1], the processive run length of DDB^CC1 on microtubules, single molecule TIRF came to 2.8 µm and the speed of DDB^CC1 on microtubules, single molecule TIRF is 0.41 µm/s. In assay [2], the processive run length of DDB^CC1 on microtubules, single molecule TIRF worked out at 2.8 µm and the speed of DDB^CC1 on microtubules, single molecule TIRF was determined as 0.41 µm/s.
